Results from paper PMC6547681, “Structures of BCL-2 in complex with venetoclax reveal the molecular basis of resistance mutations” (Nature Communications, 2019).

Columns and labels:
[1] = target: BIMBH3 peptide; assay: SPR; direct binding; biotinylated BIMBH3 or BAXBH3 peptide immobilised on SA sensor chip, BCL-2 (0-63 nM) as analyte; HBS-EP (10 mM hepes pH 7.4, 150 mM sodium chloride, 3.4 mM EDTA, 0.005% tween 20, optionally 1 mM TCEP for BAXBH3), 25 °C; BIAcore 4000 or S200; 1:1 binding site kinetic model; BIMBH3-4A reference surface
[2] = target: BAXBH3 peptide; assay: as above
[3] = target: venetoclax; assay: steady-state competition SPR; conditions: BIMBH3 peptide immobilised on chip; BCL-2 analyte pre-combined with venetoclax at 0, 20, 40, 60 nM
[4] = target: S55746; assay: steady-state competition SPR; conditions: BIMBH3 peptide immobilised on chip; BCL-2 analyte pre-combined with S55746 at 0, 20, 40, 60 nM

Sequence of BAXBH3 peptide (Q07812 other isoform, or with tags, fused parts or gaps): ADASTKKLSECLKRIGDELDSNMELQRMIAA
Sequence of BIMBH3 peptide (O43521 141-166): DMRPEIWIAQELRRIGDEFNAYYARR

| Substance | Kd [1] | Kd [2] | Ki [3] | Ki [4] |
| --- | --- | --- | --- | --- |
| BCL-2 E152A (from UniProt P10415 1-239) (natural protein) | 0.36 nM | 3.6 nM | – | – |
| BCL-2 F104C (from UniProt P10415 1-239) (natural protein) | 0.17 nM | 4 nM | – | – |
| BCL-2 G101A (from UniProt P10415 1-239) (natural protein) | 0.23 nM | – | – | – |
| BCL-2 G101V/E152A double mutant (from UniProt P10415 1-239) (natural protein) | 0.63 nM | 5.5 nM | – | – |
| BCL-2 WT (from UniProt P10415) E152A | – | – | 0.027 nM | – |
| BCL-2 WT (from UniProt P10415) F104C | – | – | 25.1 nM | – |
| BCL-2 WT (from UniProt P10415) G101A | – | – | 0.11 nM | – |
| BCL-2 WT (from UniProt P10415) G101V | – | – | – | 36 nM |
| BCL-2 WT (from UniProt P10415) G101V; E152A | – | – | 0.002 nM | 5.3 nM |
